Data: article PMC545490, “Mapping and mutation of the conserved DNA polymerase interaction motif (DPIM) located in the C-terminal domain of fission yeast DNA polymerase δ subunit Cdc27” (BMC Molecular Biology, 2004)

B1: Gal4-Cdc27-273-352 (wild type) [S. pombe] / LexA-Pol1-278-527 [S. pombe] (parent complex)
chain 1: TEAKSAAPDEPQEIIKSVSGGKRRGKRKVKKYATTKDEEGFLVTKEEEVWESFSEDENISTGTSNVVRNKPTTVNIATKK
chain 2: PLSPMTPLSSELDVSAFSEINSKIKNVDVPASSYSSPISKVSPSDVTEEDGSLFFFWMDYTEMYGSLCLFGKVYDKATKQYVSCFLKVDGIMRSLYFLPRPSSSSVSEDSIAAQTKDVYDEVANLLSKRGVKEWKSRVSKYKYAFELEDVPRTADYLEVIYSYSYPALPTDLTGSSFSHVFGTNTALFEQFVLSRRVMGPCWLKIQQPNFDAVKNASWCRVEIGCSSPQNISVSFEKNEITSKTPPMTVM

Variants of: B1
Test: yeast two-hybrid, β-galactosidase activity in liquid cultures; parent: 150; read off a plot

response | Variant
~46 Miller units | chain 1 TEAKSAAPDEPQEIIKSVSGGAAAGKRKVKKYATTKDEEGFLVTKEEEVWESFSEDENISTGTSNVVRNKPTTVNIATKK [chain 1 K22A, chain 1 R23A, chain 1 R24A]
~35 Miller units | chain 1 TEAKSAAPDEPQEIIKSVSGGKRRGKRKVAAYATTKDEEGFLVTKEEEVWESFSEDENISTGTSNVVRNKPTTVNIATKK [chain 1 K30A, chain 1 K31A]
